# From patent publication US20160176973A1 (published 2016)
# B1: Human BCMA (receptor)
# chain (part 1 of 2): MLQMAGQCSQNEYFDSLLHACIPCQLRCSSNTPPLTCQRYCNASVTNSVKGTNASGGGGSEAHKSEIAHRYNDLGEQHFKGLVLIAFSQYLQKCSYDEHAKLVQEVTDFAKTCVADESAANCDKSLHTLFGDKLCAIPNLRENYGELADCCTKQEPERNECFLQHKDDNPSLPPFERPEAEAMCTSFKENPTTFMGHYLHEVARRHPYFYAPELLYYAEQYNEILTQCCAEADKESCLTPKLDGVKEKALVSSVRQRMKCSSMQKFGERAFKAWAVARLSQTFPNADFAEITKLATDLTKVNKECCHGDLLECADDRAELAKYMCENQATISSKLQTCCDKPLLKKAHCLSEVEHDTMPADLPAIAADFVEDQEVCKNYAEAKDVFLGTFLYEYSRRHPDYSVSLLLRLAKKYEATLEKCCAEANPPACYGTVLAEFQPLVEEPKNLVKTNCDLYEKLGEYGFQNAILVRYTQKAPQVSTPTLVEAARNLGRVGTKCCTLPEDQRLPCVEDYLSAILNRVCLLHEKTPVSEHVTKCCSGSLVERRPCFSALTVDETYVPKEFKAETFTFHSDICTLPEKEKQIKKQTALAELVKHKPKATAEQLKTVMDDFAQFLDTCCKAADKDTCFSTEGPNLVTRCKDALA
# chain (part 2 of 2): SGHHGGHHGGHH
# Tests used:
# Test in all cases: SPR (Biacore)
# [1] = target: BC 244-C6 x CD3
# [2] = target: BCMA 101 x CD3
# [3] = target: BC 247-C3 x CD3
binder,measurement,setting,value
B1,Kd,[1],0.3 nM
same,Kd,[2],0.5 nM
same,Kd,[3],0.4 nM
